Reference: patent publication US20220089722A1 (NANTONG YICHEN BIOPHARMA, published 2022)

Key:
[1] = molecular target: MICA on PANC-1, BXPC-3 or K562 cells (UniProt Q29983 24-383, limits assumed); experiment: cell-based or functional assay
EGFR on F98-EGFR cells [2] = molecular target: T1, EGFR on F98-EGFR cells (UniProt P00533 25-1210, limits assumed); experiment: cell-based or functional assay
EGFR on F98-EGFR cells [3] = molecular target: T1, EGFR on F98-EGFR cells; experiment: flow cytometry on F98-EGFR cells
In short: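 F98-EGFR cells (2×10⁵), blocked in 2% FBS/PBS, were incubated with test antibodies 2 h at 4° C, washed, then stained with FITC anti-human IgG Fc for 1 h at 4° C. Cell-surface binding was read by flow cytometry.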

[4] = molecular target: T2, CD3 on T cells (Jurkat T cells; PBMC-T cells); experiment: flow cytometry on activated T cells from PBMCs (PBMC-T)
T2 construct: whole, on cells; the target is inferred from the anti-CD3 arm of the constructs
T2 sequence (P07766 23-207): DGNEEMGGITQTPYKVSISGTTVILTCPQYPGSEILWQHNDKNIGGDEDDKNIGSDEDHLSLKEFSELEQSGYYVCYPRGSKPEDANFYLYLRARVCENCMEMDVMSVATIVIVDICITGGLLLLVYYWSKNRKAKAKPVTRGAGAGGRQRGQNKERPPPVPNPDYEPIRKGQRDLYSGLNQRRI
Protocol: Peripheral blood of healthy volunteers was collected, and Ficoll-Hypaque(GE Healthcare) was used to separate peripheral blood monouclear cells (PBMCs) via gradient centrifugation. The purified PBMCs were resuspended in RPMI 1640/10% FBS complete medium. PBMCs were incubated with immobilized anti-CD3 (Clone OKT3, eBiosciences), and 2 μg mL anti-CD28 (Clone CloneCD28.2, eBiosciences) at 37° C. for 48 h. The activated T cells were then expanded for 10d with 20 U/ml IL2(R&D Systems). 2×10⁵ cells were washed by precooled PBS for 3 times, and blocked by 2% FBS (in PBS), and then incubated with IgFD-8, IgFD-18 or IgFD-19 at different concentrations (25 nM, 7.5 nM, 2.5 nM, 0.75 nM or 0.25 nM) for 1 h at 4° C. (cells were gently mixed during incubation). Unbounded antibodies were washed by 2% FBS (in PBS), and the cells were incubated with FITC anti-human IgGFc (KPL, Inc., MD) for 1 h at 4° C. (cells were gently mixed during incubation). The cells were subjected for flow cytometry analysis after the unbounded antibodies were washed by 2% FBS (in PBS).

MICA on PANC-1, BXPC-3 or K562 cells, sequence (Q29983 24-383 limits assumed): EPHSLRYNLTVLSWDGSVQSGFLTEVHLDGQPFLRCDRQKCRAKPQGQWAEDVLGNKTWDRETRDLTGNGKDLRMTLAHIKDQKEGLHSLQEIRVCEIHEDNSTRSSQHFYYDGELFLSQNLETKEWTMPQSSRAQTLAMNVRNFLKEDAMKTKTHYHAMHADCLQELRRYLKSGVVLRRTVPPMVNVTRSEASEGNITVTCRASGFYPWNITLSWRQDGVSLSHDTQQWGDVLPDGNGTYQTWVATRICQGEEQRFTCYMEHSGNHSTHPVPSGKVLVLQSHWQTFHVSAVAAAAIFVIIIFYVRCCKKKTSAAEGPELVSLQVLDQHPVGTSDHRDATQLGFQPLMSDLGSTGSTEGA

B1: IgFD-37(anti-CD3/MICA) (Fc fusion)
chain 1: EVQLVESGGGLVQPGGSLRLSCAASGFTFNTYAMNWVRQAPGKGLEWVARIRSKYNNYATYYADSVKDRFTISRDDSKNTLYLQMNSLRAEDTAVYYCVRHGNFGNSYVSWFAYWGQGTLVTVSSASTKGPSVFPLAPSSKSTSGGTAALGCLVKDYFPEPVTVSWNSGALTSGVHTFPAVLQSSGLYSLSSVVTVPSSSLGTQTYICNVNHKPSNTKVDKKVEPKSCDKTHTCPPCPAPPVAGPSVFLFPPKPKDTLMISRTPEVTCVVVDVSHEDPEVKFNWYVDGVEVHNAKTKPREEQYNSTYRVVSVLTVLHQDWLNGKEYKCKVSNKGLPSSIEKTISKAKGQPREPQVYTLPPCRDELTKNQVSLWCLVKGFYPSDIAVEWESNGQPENNYKTTPPVLDSDGSFFLYSKLTVDKSRWQQGNVFSCSVMHEALHNHYTQKSLSLSPGKGGSGAKLAALKAKLAALKGGGGSFLNSLFNQEVQIPLTESYCGPCPKNWICYKNNCYQFFDESKNWYESQASCMSQNASLLKVYSKEDQDLLKLVKSYHWMGLVHIPTNGSWQWEDGSILSPNLLTIIEMQKGDCALYASSFKGYIENCSTPNTYICMQRTV
chain 2: QAVVTQEPSLTVSPGGTVTLTCRSSTGAVTTSNYANWVQQKPDHLFRGLIGGTNKRAPGTPARFSGSLLGDKAALTISGAQPEDEAEYYCALWYSNLWVFGGGTKLTVLKRTVAAPSVFIFPPSDEQLKSGTASVVCLLNNFYPREAKVQWKVDNALQSGNSQESVTEQDSKDSTYSLSSTLTLSKADYEKHKVYACEVTHQGLSSPVTKSFNRGECDKTHTCPPCPAPPVAGPSVFLFPPKPKDTLMISRTPEVTCVVVDVSHEDPEVKFNWYVDGVEVHNAKTKPREEQYNSTYRVVSVLTVLHQDWLNGKEYKCKVSNKGLPSSIEKTISKAKGQPREPQVCTLPPSRDELTKNQVSLSCAVKGFYPSDIAVEWESNGQPENNYKTTPPVLDSDGSFFLVSKLTVDKSRWQQGNVFSCSVMHEALHNHYTQKSLSLSPGKGGSGAKLAALKAKLAALKGGGGSFLNSLFNQEVQIPLTESYCGPCPKNWICYKNNCYQFFDESKNWYESQASCMSQNASLLKVYSKEDQDLLKLVKSYHWMGLVHIPTNGSWQWEDGSILSPNLLTIIEMQKGDCALYASSFKGYIENCSTPNTYICMQRTV
Question: How did the “Promotion for the specific killing effect of PBMCs on target cells by heterodimers (EC50, pM); K562 cells, LDH assay” value [1] turn out when B1 was run?
Answer: 1090 pM

Question: What about the “Promotion for the specific killing effect of PBMCs on target cells by heterodimers (EC50, pM); PANC-1 cells, LDH assay” value [1] of the same binder?
Answer: 676 pM

B2: IgFD-8 (bispecific antibody, human IgG1, kappa)
chain 1: EVQLVESGGGLVQPGGSLRLSCAASGFTFNTYAMNWVRQAPGKGLEWVARIRSKYNNYATYYADSVKDRFTISRDDSKNTLYLQMNSLRAEDTAVYYCVRHGNFGNSYVSWFAYWGQGTLVTVSSASTKGPSVFPLAPSSKSTSGGTAALGCLVKDYFPEPVTVSWNSGALTSGVHTFPAVLQSSGLYSLSSVVTVPSSSLGTQTYICNVNHKPSNTKVDKKVEPKSCDKTHTCPPCPAPPVAGPSVFLFPPKPKDTLMISRTPEVTCVVVDVSHEDPEVKFNWYVDGVEVHNAKTKPREEQYNSTYRVVSVLTVLHQDWLNGKEYKCKVSNKGLPSSIEKTISKAKGQPREPQVYTLPPSRDELTKNQVSLTCLVKGFYPSDIAVEWESNGQPENNYKTTPPVLDSDGSFFLYSKLTVDKSRWQQGNVFSCSVMHEALHNHYTQKSLSLSPGK
chain 2: QAVVTQEPSLTVSPGGTVTLTCRSSTGAVTTSNYANWVQQKPDHLFRGLIGGTNKRAPGTPARFSGSLLGDKAALTISGAQPEDEAEYYCALWYSNLWVFGGGTKLTVLKRTVAAPSVFIFPPSDEQLKSGTASVVCLLNNFYPREAKVQWKVDNALQSGNSQESVTEQDSKDSTYSLSSTLTLSKADYEKHKVYACEVTHQGLSSPVTKSFNRGECDKTHTCPPCPAPPVAGPSVFLFPPKPKDTLMISRTPEVTCVVVDVSHEDPEVKFNWYVDGVEVHNAKTKPREEQYNSTYRVVSVLTVLHQDWLNGKEYKCKVSNKGLPSSIEKTISKAKGQPREPQVYTLPPSRDELTKNQVSLTCLVKGFYPSDIAVEWESNGQPENNYKTTPPVLDSDGSFFLYSKLTVDKSRWQQGNVFSCSVMHEALHNHYTQKSLSLSPGKGGSGGSGGGGSGGGGSDIQMTQSPSSLSASVGDRVTITCQASQDISNYLNWYQQKPGKAPKLLIYDASNLETGVPSRFSGSGSGTDFTFTISSLQPEDIATYFCQHFDHLPLAFGGGTKVEIKGGGGSGGGGSGGGGSQVQLQESGPGLVKPSETLSLTCTVSGGSVSSGDYYWTWIRQSPGKGLEWIGHIYYSGNTNYNPSLKSRLTISIDTSKTQFSLKLSSVTAADTAIYYCVRDRVTGAFDIWGQGTMVTVSS
Question: How did the “Promotion for the specific killing effect of PBMCs on target cells by heterodimers (EC50, pM); F98-EGFR cells, LDH assay” value (EGFR on F98-EGFR cells [2]) turn out when B2 was run?
Answer: 766 pM

Question: What about the Kd (EGFR on F98-EGFR cells [3]) of the same binder?
Answer: 3.12 nM

Question: What about the Kd [4] of the same binder?
Answer: 3.74 nM
